Laboratory results taken from patent publication US20040072184.

Experiments:
[1] = biological target: T1, GST-SGK2 fusion protein
T1 chain: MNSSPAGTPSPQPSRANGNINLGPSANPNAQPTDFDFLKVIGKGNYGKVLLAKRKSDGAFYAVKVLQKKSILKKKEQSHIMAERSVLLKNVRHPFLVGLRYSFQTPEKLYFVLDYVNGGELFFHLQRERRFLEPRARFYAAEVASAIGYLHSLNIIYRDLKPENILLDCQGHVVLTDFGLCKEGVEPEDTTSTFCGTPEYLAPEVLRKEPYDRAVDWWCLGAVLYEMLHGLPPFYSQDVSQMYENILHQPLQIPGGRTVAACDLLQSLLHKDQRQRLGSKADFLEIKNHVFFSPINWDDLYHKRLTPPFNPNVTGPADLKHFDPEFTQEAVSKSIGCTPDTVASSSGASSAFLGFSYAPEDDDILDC

[2] = biological target: T2, Syntide 2
T2 chain: PLARTLSVAGLPGKK

[3] = biological target: T3, CREBtide
T3 chain: KRREILSRRPSYR

[4] = biological target: T4, Calmodulin Dependent Protein Kinase Substrate
T4 chain: PLSRTLSVSS

[5] = biological target: PDK1 peptide
Sequence of PDK1 peptide (chain, as listed by the source): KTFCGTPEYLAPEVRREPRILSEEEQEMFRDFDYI

[6] = biological target: T5, PKB-sub peptide
T5 chain: CKRPRAASFAE

[7] = biological target: Histone H1
[8] = biological target: MBP

B1: His-tag PDK1 (protein)
chain: MARTTSQLYDAVPIQSSVVLCSCPSPSMVRTQTESSTPPGIPGGSRQGPAMDGTAAEPRPGAGSLQHAQPPPQPRKKRPEDFKFGKILGEGSFSTVVLARELATSREYAIKILEKRHIIKENKVPYVTRERDVMSRLDHPFFVKLYFTFQDDEKLYFGLSYAKNGELLKYIRKIGSFDETCTRFYTAEIVSALEYLHGKGIIHRDLKPENILLNEDMHIQITDFGTAKVLSPESKQARANSFVGTAQYVSPELLTEKSACKSSDLWALGCIIYQLVAGLPPFRAGNEYLIFQKIIKLEYDFPEKFFPKARDLVEKLLVLDATKRLGCEEMEGYGPLKAHPFFESVTWENLHQQTPPKLTAYLPAMSEDDEDCYGNYDNLLSQFGCMQVSSSSSSHSLSASDTGLPQRSGSNIEQYIHDLDSNSFELDLQFSEDEKRLLLEKQAGGNPWHQFVENNLILKMGPVDKRKGLFARRRQLLLTEGPHLYYVDPVNKVLKGEIPWSQELRPEAKNFKTFFVHTPNRTYYLMDPSGNAHKWCRKIQEVWRQRYQSHPDAAVQ
32P phosphorylation of SGK2 after incubation with PDK1, SDS-PAGE [1]: SGK2 activated by PKD1 was significantly phosphorylated, while non-activated SGK2 was not
in vitro kinase activity of SGK2 after activation by PDK1 [1]: the PDK1 activated SGK2 had significantly higher kinase activity compared to non-activated SGK2

B2: X-press-CaMK-X1 fusion protein (protein)
chain: MGRKEEDDCSSWKKQTTNIRKTFIFMEVLGSGAFSEVFLVKQRLTGKLFALKCIKKSPAFRDSSLENEIAVLKKIKHENIVTLEDIYESTTHYYLVMQLVSGGELFDRILERGVYTEKDASLVIQQVLSAVKYLHENGIVHRDLKPENLLYLTPEENSKIMITDFGLSKMEQNGIMSTACGTPGYVAPEVLAQKPYSKAVDCWSIGVITYILLCGYPPFYEETESKLFEKIKEGYYEFESPFWDDISESAKDFICHLLEKDPNERYTCEKALSHPWIDGNTALHRDIYPSVSLQIQKNFAKSKWRQAFNAAAVVHHMRKLHMNLHSPGVRPEVENRPPETQASETSRPSSPEITITEAPVLDHSVALPALTQLPCQHGRRPTAPGGRSLNCLVNGSLHISSSLVPMHQGSLAAGPCGCCSSCLNIGSKGKSSYCSEPTLLKKANKKQNFKSEVMVPVKASGSSHCRAGQTGVCLIM
in vitro kinase assay (32P incorporation) with immunoprecipitated CaMK-X1 [2]: CaMK-X1 phosphorylated CREBtide and Syntide 2 in vitro
in vitro kinase assay (32P incorporation) with immunoprecipitated CaMK-X1 [3]: CaMK-X1 phosphorylated CREBtide and Syntide 2 in vitro
in vitro kinase assay (32P incorporation) with immunoprecipitated CaMK-X1 [4]: CaMK-X1 could not phosphorylate control peptide

B3: Histidine tagged CaMK-X1 expressed in Sf9 cells (protein)
chain: MGRKEEDDCSSWKKQTTNIRKTFIFMEVLGSGAFSEVFLVKQRLTGKLFALKCIKKSPAFRDSSLENEIAVLKKIKHENIVTLEDIYESTTHYYLVMQLVSGGELFDRILERGVYTEKDASLVIQQVLSAVKYLHENGIVHRDLKPENLLYLTPEENSKIMITDFGLSKMEQNGIMSTACGTPGYVAPEVLAQKPYSKAVDCWSIGVITYILLCGYPPFYEETESKLFEKIKEGYYEFESPFWDDISESAKDFICHLLEKDPNERYTCEKALSHPWIDGNTALHRDIYPSVSLQIQKNFAKSKWRQAFNAAAVVHHMRKLHMNLHSPGVRPEVENRPPETQASETSRPSSPEITITEAPVLDHSVALPALTQLPCQHGRRPTAPGGRSLNCLVNGSLHISSSLVPMHQGSLAAGPCGCCSSCLNIGSKGKSSYCSEPTLLKKANKKQNFKSEVMVPVKASGSSHCRAGQTGVCLIM
in vitro kinase assay (32P incorporation) with Ni2+ column purified CaMK-X1 [2]: CREBtide and Syntide 2 are phosphorylated by the purified CaMK-X1
in vitro kinase assay (32P incorporation) with Ni2+ column purified CaMK-X1 [3]: CREBtide and Syntide 2 are phosphorylated by the purified CaMK-X1
in vitro kinase assay (32P incorporation) with Ni2+ column purified CaMK-X1 [4]: Syntide 2and CREBtide had higher incorporation of ^32p than the control peptide

B4: GST-SGK2 fusion protein (protein)
chain: MNSSPAGTPSPQPSRANGNINLGPSANPNAQPTDFDFLKVIGKGNYGKVLLAKRKSDGAFYAVKVLQKKSILKKKEQSHIMAERSVLLKNVRHPFLVGLRYSFQTPEKLYFVLDYVNGGELFFHLQRERRFLEPRARFYAAEVASAIGYLHSLNIIYRDLKPENILLDCQGHVVLTDFGLCKEGVEPEDTTSTFCGTPEYLAPEVLRKEPYDRAVDWWCLGAVLYEMLHGLPPFYSQDVSQMYENILHQPLQIPGGRTVAACDLLQSLLHKDQRQRLGSKADFLEIKNHVFFSPINWDDLYHKRLTPPFNPNVTGPADLKHFDPEFTQEAVSKSIGCTPDTVASSSGASSAFLGFSYAPEDDDILDC
in vitro kinase assay (32P incorporation) with purified SGK2 [5]: addition of same amount of control peptide (PDK1 peptide) had no significant incorporation
in vitro kinase assay (32P incorporation) with purified SGK2 [6]: PKB-sub had significant incorporation of ^32P

B5: GST-DM-PK fusion protein (protein)
chain: MSAEVRLRRLQQLVLDPGFLGLEPLLDLLLGVHQELGASELAQDKYVADFLQWAEPIVVRLKEVRLQRDDFEILKVIGRGAFSEVAVVKMKQTGQVYAMKIMNKWDMLKRGEVSCFREERDVLVNGDRRWITQLHFAFQDENYLYLVMEYYVGGDLLTLLSKFGERIPAEMARFYLAEIVMAIDSVHRLGYVHRDIKPDNILLDRCGHIRLADFGSCLKLRADGTVRSLVAVGTPDYLSPEILQAVGGGPGTGSYGPECDWWALGVFAYEMFYGQTPFYADSTAETYGKIVHYKEHLSLPLVDEGVPEEARDFIQRLLCPPETRLGRGGAGDFRTHPFFFGLDWDGLRDSVPPFTPDFEGATDTCNFDLVEDGLTAMVSGGGETLSDIREGAPLGVHLPFVGYSYSCMALRDSEVPGPTPMEVEAEQLLEPHVQAPSLEPSVSPQDETAEVAVPAAVPAAEAEAEVTLRELQEALEEEVLTRQSLSREMEAIRTDNQNFASQLREAEARNRDLEAHVRQLQERMELLQAEGATAVTGVPSPRATDPPSHLDGPPAVAVGQCPLVGPGPMHRRHLLLPARVPRPGLSEALSLLLFAVVLSRAAALGCIGLVAHAGQLTAVWRRPGAARAP
in vitro kinase assay with DM-PK purified from E. coli [7]: MBP and Histone H1 were both phosphorylated by purified DM-PK in these assays
in vitro kinase assay with DM-PK purified from E. coli [8]: MBP and Histone H1 were both phosphorylated by purified DM-PK in these assays
